Test results from patent US20060252724A1 (Pfizer, published 2006).

Molecular target: T1, rhBMP-2 (recombinant human bone morphogenetic protein-2) (human, UniProt P12643 283-396)
T1 construct: Control protein on the Western blot; Analysed on reducing SDS-PAGE
Assay: co-immunoprecipitation

T1 sequence (P12643 283-396 limits assumed): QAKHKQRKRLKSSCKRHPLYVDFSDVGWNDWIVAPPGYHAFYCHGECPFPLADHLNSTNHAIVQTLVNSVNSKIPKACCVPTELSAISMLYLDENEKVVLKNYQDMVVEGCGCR

B1: retrovirally produced BMP-3 (from pBABE-BMP3, full-length human BMP-3 cDNA, secreted by infected W-20-17 cells) (ligand)
chain: QWIEPRNCARRYLKVDFADIGWSEWIISPKSFDAYYCSGACQFPMPKSLKPSNHATIQSIVRAVGVVPGIPEPCCVPEKMSSLSILFFDENKNVVLKVYPNMTVESCACR
notes: Expressed from the full-length human cDNA; The secreted, processed form has a most abundant monomer of about 28 kD, with glycosylated or alternatively processed forms; also called vBMP3; BMP-3 CM
  binding result: no binding
